# Test results published in article PMC9728394, “Molecular Docking and Kinetic Studies of the A226N Mutant of Deinococcus geothermalis Amylosucrase with Enhanced Transglucosylation Activity” (Journal of Microbiology and Biotechnology, 2020).
# How the values were obtained:
# [1] = test system: OC[C@H]1O[C@@](CO)(O[C@H]2O[C@H](CO)[C@@H](O)[C@H](O)[C@H]2O)[C@@H](O)[C@@H]1O; experiment: HPLC of 4-methylumbelliferone glucoside, initial velocities, Lineweaver-Burk fit; format: biochemical, Deinococcus geothermalis; details: donor, 0.4-200 mM, 1 mM 4-methylumbelliferone as acceptor, 50 mM Tris-HCl pH 8.0, 45°C
# Text: (§1) HPLC of 4-methylumbelliferone glucoside, initial velocities, Lineweaver-Burk fit on DgAS (WT DgAS)
# Cc1cc(=O)oc2cc(O)ccc12 = experiment: as above; format: biochemical, Deinococcus geothermalis; details: acceptor, 0.1-1.0 mM, 200 mM sucrose as donor, 50 mM Tris-HCl pH 8.0, 45°C
# Text: as §1
Substance,Km [1],kcat [1],kcat/Km [1],Km (Cc1cc(=O)oc2cc(O)ccc12),kcat (Cc1cc(=O)oc2cc(O)ccc12),kcat/Km (Cc1cc(=O)oc2cc(O)ccc12)
DgAS (WT DgAS) (Deinococcus geothermalis DSM 11300),36.174 ± 2.037 mM,0.1096 s⁻¹,3.03 M⁻¹ s⁻¹,,,
DgAS (WT DgAS) (Deinococcus geothermalis DSM 11300; A226N),44.570 ± 4.625 mM,0.1139 s⁻¹,2.55 M⁻¹ s⁻¹,2.718 ± 0.655 mM,0.28778 s⁻¹,106 M⁻¹ s⁻¹
